Among the data in the supplement of paper PMC10567573 are protein stability index values, retold here.

This data set in a line: protein stability index of a GFP-peptide fusion (GPS, HEK-293T) (PSI 1-6); higher = more stable.
Where [1] appears, read: treatment: DMSO, c terminus: a fixed tail appended.
Setting [2] is: treatment: MLN4924 1 uM, 8 h, c terminus: a fixed tail appended.

± gives the standard deviation.
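Note: 24-mer peptide tiles fused after GFP, lentivirally expressed, FACS-sorted into six equal bins by GFP/DsRed ratio, decoded by Illumina sequencing, PSI is the read-weighted mean bin number.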

Sequence HWRECLFYPALWPQLRICLRVSPA [FBXO33] came in with a protein stability index under setting [1] of 2.42 ± 1.1 and a protein stability index under setting [2] of 2.61 ± 0.78.

The sequence AAPAAKTRKQAAKKVAPLMAKAIR [ELOA2] yielded a protein stability index under setting [1] of 3.78 ± 0.24 and a protein stability index under setting [2] of 4.16 ± 0.21.

For VIVQLHKLRHLDISRDRLSSYYKF [ZER1], the protein stability index is 2.76 ± 0.63 under setting [1] and 2.56 ± 0.45 under setting [2].

Consider MGGAVSAGEDNDELIDNLKEAQYI [PCMTD2], for which the protein stability index under setting [1] was 5.1 ± 0.15 and the protein stability index under setting [2] was found to be 4.95 ± 0.21.

For QLENEQSQENSINPIQKEEDEGVD [SPANXN3], the protein stability index is 5.56 ± 0.22 under setting [1] and 5.67 ± 0.2 under setting [2].

In the case of DKVLRFAQQIRLHHFNSSHLEIDD [MYORG], the protein stability index is 2.93 ± 0.17 under setting [1] and 2.95 ± 0.23 under setting [2].

In the case of GGSTSAHYAVNSQFTMGGPAISMA [CARM1], the protein stability index amounted to 2.94 ± 0.55 under setting [1] and 2.94 ± 0.25 under setting [2].

Turning to QKVDQFDPFTVPTISFICRELDAI [PRIM1], the protein stability index runs as follows: under setting [1], 2.2 ± 0.24; under setting [2], 2.31 ± 0.33.

In the case of SLHCLLDQFDKDLPVYLKKDPAYF [DENND6A], the protein stability index by setting is: under setting [1], 2.13 ± 0.41; under setting [2], 2.23 ± 0.23.

For the sequence QRISCFQSTVKCLTVLQRLDVWLS [WDR41], the protein stability index reads like this: under setting [1], 2.45 ± 0.35; under setting [2], 2.41 ± 0.44.

Turning to ASFCVETNNGAGFGLSILWVLLFT [SCAMP3], the protein stability index runs as follows: under setting [1], 2.86 ± 0.71; under setting [2], 2.99 ± 0.12.

Take FPVAEQDKLLKHMIIEHKIVIADV [ZNF277]: the protein stability index is 2.25 ± 0.18 under setting [1] and 2.4 ± 0.34 under setting [2].

Under setting [2], YGFSLKTVQGKKGVYMTDITPQGV [PDZK1] displayed a protein stability index of 2.5 ± 0.68.

In turn, LVENIIDIYKQECSSRPLQKGSHP [TRIM63] returned a protein stability index under setting [1] of 2.36 ± 0.17 and a protein stability index under setting [2] of 2.56 ± 0.13.

As to LIKNFHQYSVEGGKETLTPSELRD [S100A14], the protein stability index by setting is: under setting [1], 4.15 ± 0.2; under setting [2], 4.3 ± 0.26.

Regarding QGMEGIKVFLHERELWLKFHEVGT [TBX5], the protein stability index amounted to 2.2 ± 0.14 under setting [1] and 2.17 ± 0.23 under setting [2].

For IRQLQEQHYQQYMQQLYQVQLAQQ [ACBD3], the protein stability index turned out to be 2.23 ± 0.29 under setting [1] and 2.43 ± 0.24 under setting [2].

Take EQPRLEFLMRKCGWFVRELRVEFA [FBXO33]: the protein stability index amounted to 2.64 ± 0.34 under setting [1] and 2.12 ± 0.24 under setting [2].

Turning to PPPKTNLTPGQSDSAKREVKQKIS [FAN1], the protein stability index is, setting by setting: under setting [1], 5.44 ± 0.24; under setting [2], 5.35 ± 0.094.

Regarding RDLKTQNILLDKHRMVVKIGDFGI [NEK8], the protein stability index worked out at 2.24 ± 0.18 under setting [1] and 2.24 ± 0.16 under setting [2].

As for IKEAKEQHPDMSVTKVVVHKETEI [EPB41L3], the protein stability index turned out to be 5.23 ± 0.14 under setting [1] and 5.02 ± 0.21 under setting [2].

MTDQQAEARSYLSEEMIAEFKAAF [TNNC2] had a protein stability index under setting [1] of 4.22 ± 0.13 and a protein stability index under setting [2] of 4.25 ± 0.16.

QDLLKERQKDLKFLSEEEYWKLQI [CCNC] gave a protein stability index under setting [1] of 3.45 ± 0.13 and a protein stability index under setting [2] of 3.67 ± 0.15.

With MQRKQSLGKPDQKDLNENLAATQG [DLC1], the protein stability index runs as follows: under setting [1], 5.11 ± 0.37; under setting [2], 4.99 ± 0.45.

For the sequence ARSIAEQAHELAYDPNYMSPFAQF [PPTC7], the protein stability index is, setting by setting: under setting [1], 2.91 ± 0.35; under setting [2], 3.08 ± 0.27.

QRDSKRWSRLEEFDVFSPKQDLVP [DLC1] gave a protein stability index under setting [1] of 3.63 ± 0.13 and a protein stability index under setting [2] of 3.8 ± 0.21.

As for EVNSAEELEGLIADPDEMRMQALL [FEM1C], the protein stability index by setting is: under setting [1], 4.89 ± 0.16; under setting [2], 5 ± 0.3.

As for TNFHGVCMFCNEEFLGNRSVILNH [ZNF277], the protein stability index under setting [1] was determined as 2.08 ± 0.33 and the protein stability index under setting [2] amounted to 2.11 ± 0.39.

Turning to KEDTLLLIAEVMGEDIPEKIKDEV [C8orf76], the protein stability index worked out at 4.35 ± 0.49 under setting [1] and 4.22 ± 0.38 under setting [2].

Turning to LVWIRGPGFGCKAVRCASGRCTVR [SDE2], the protein stability index stood at 2.37 ± 0.87 under setting [1] and 2.36 ± 0.42 under setting [2].

Take GMLDVADESLTDLEAQPYEAVFLR [P3H4]: the protein stability index under setting [1] worked out at 4.02 ± 0.47 and the protein stability index under setting [2] stood at 4.19 ± 0.21.

QEPMVPAKLGTQAEKDRRLKKKHQ [PPFIA4]: the protein stability index by setting is: under setting [1], 5.32 ± 0.42; under setting [2], 5.56 ± 0.11.

For the sequence IIKQIPVEQMTKEERQAAQNECQV [NEK8], the protein stability index was determined as 4.93 ± 0.19 under setting [1] and 4.75 ± 0.24 under setting [2].

With MACPYSVLISGDIKDRLKKKEDCL [FAM98B], the protein stability index runs as follows: under setting [1], 2.87 ± 0.071; under setting [2], 3.49 ± 0.38.

Consider GNTAVSVLMLLVALLFTGIAVLGI [SCAMP3], for which the protein stability index is, setting by setting: under setting [1], 1.99 ± 0.37; under setting [2], 1.96 ± 0.34.

On to EENELTSLAEDLLGLTDPNGGLA [TRADD], for which the protein stability index (treatment: DMSO, c terminus: native) was found to be 5.14 ± 0.19 and the protein stability index (treatment: MLN4924 1 uM, 8 h, c terminus: native) came to 5.06 ± 0.43.

For the sequence KELEARVRKPAEAERYKLERLAEA [FLOT1], the protein stability index came to 4.88 ± 0.29 under setting [1] and 4.95 ± 0.16 under setting [2].

LVLLIIIGIPLFFLELAVGQRIRR [SLC6A17]: the protein stability index reads like this: under setting [1], 3.2 ± 0.25; under setting [2], 3.2 ± 0.5.

For VDGAGKPGAEEAQDPEGKGEQEHS [CHGA], the protein stability index by setting is: under setting [1], 5.56 ± 0.18; under setting [2], 5.3 ± 0.11.

As to EADENENITVVKGIRLSENVIDRM [CHCHD3], the protein stability index reads like this: under setting [1], 4.75 ± 0.17; under setting [2], 4.7 ± 0.11.

For EAGSAGHVEVARLLLENGAGINTH [ANKRD17], the protein stability index runs as follows: under setting [1], 4.11 ± 0.36; under setting [2], 4.25 ± 0.26.

Take YQRPQDSEDMWGDEDFTFGAYQPT [FBF1]: the protein stability index runs as follows: under setting [1], 3.2 ± 0.55; under setting [2], 3.76 ± 0.48.

As to TIEECCRKQKQELCEKFDYLYGIL [TRIM55], the protein stability index runs as follows: under setting [1], 1.88 ± 0.54; under setting [2], 2.41 ± 0.85.

For the sequence KDSYSSRDYPSSRDTRDYAPPPRD [RBMX], the protein stability index runs as follows: under setting [1], 4.08 ± 0.24; under setting [2], 4.09 ± 0.6.

On to HFFGDKALKKRSGKKDKHSQSPRA [PBXIP1], for which the protein stability index under setting [1] is 4.09 ± 0.36 and the protein stability index under setting [2] worked out at 4.33 ± 0.45.

In the case of HINSISVNSDYETYMSADDLRINL [PPP2R2B], the protein stability index is 3.15 ± 0.46 under setting [1] and 3.2 ± 0.54 under setting [2].

In turn, SQKDLENDPSVNSQAQETTIIASN [TOR1AIP2] yielded a protein stability index under setting [1] of 5.37 ± 0.16 and a protein stability index under setting [2] of 5.28 ± 0.29.

With HSYCRMFLQRGADTNLGRLEDGQT [ASB7], the protein stability index runs as follows: under setting [1], 2.73 ± 0.44; under setting [2], 2.85 ± 0.48.

For the sequence KEFILTDEEVQRKREMILKRKEEE [VDR], the protein stability index is 5.33 ± 0.23 under setting [1] and 5.38 ± 0.23 under setting [2].

On to SWSDGMAFCALVHSFFPDAFDYNS [SMTNL2], for which the protein stability index was found to be 2.95 ± 0.65 under setting [1] and 2.9 ± 0.67 under setting [2].

With CTFSLTHPANRSCRETGSFLDLFR [SLC22A15], the protein stability index is, setting by setting: under setting [1], 2.31 ± 0.33; under setting [2], 2.14 ± 0.45.

As for TEGFPPGGGNARATGMFLQYTVPG [ZFYVE21], the protein stability index by setting is: under setting [1], 3.11 ± 0.16; under setting [2], 3.07 ± 0.27.

In the case of KFTNKEWETIRSFKDEWTQLDMFY [AASDHPPT], the protein stability index is 2 ± 0.36 under setting [1] and 2.22 ± 0.23 under setting [2].

As to SLRDSGYFYDPIERDIEIGFLPWL [RSPH3], the protein stability index is 2.28 ± 0.49 under setting [1] and 2.37 ± 0.47 under setting [2].

Turning to SRGYAYRDNGHSNRDEHSSRGYRN [RBMY1A1], the protein stability index reads like this: under setting [1], 4.31 ± 0.16; under setting [2], 4.21 ± 0.12.

As to LDGQLDFEEFVHYLQDHEKKLRLV [SLC25A25], the protein stability index is, setting by setting: under setting [1], 3.3 ± 0.68; under setting [2], 2.98 ± 0.33.

Consider QEQNGRLQAELAAQEALREKAAAL [LRRC45], for which the protein stability index reads like this: under setting [1], 5.25 ± 0.21; under setting [2], 5.31 ± 0.28.

As to ASLDNGGCALTTFSVLEGEKNNHR [SOAT1], the protein stability index runs as follows: under setting [1], 4.2 ± 0.31; under setting [2], 4.34 ± 0.09.

Regarding TKILVVNAAYFVGKWMKKFPESET [SERPINB5], the protein stability index is, setting by setting: under setting [1], 2.56 ± 0.6; under setting [2], 2.53 ± 0.47.

With ATRSIQVDGKTIKAQIWDTAGQER [RAB11A], the protein stability index is, setting by setting: under setting [1], 4.28 ± 0.33; under setting [2], 4.37 ± 0.19.

For the sequence LYSLTLYGLRGPHKADSIQGTART [TNXB], the protein stability index worked out at 2.11 ± 0.21 under setting [1] and 2.48 ± 0.3 under setting [2].

Turning to SEQESLLQQAQAQFRMAQEEARRN [SMG5], the protein stability index is, setting by setting: under setting [1], 5.19 ± 0.2; under setting [2], 5.14 ± 0.31.

Take EKELVFDIDMTDYDDVRRCCSSAD [PRIM1]: the protein stability index under setting [1] amounted to 4.73 ± 0.27 and the protein stability index under setting [2] came to 4.7 ± 0.35.

As for DTREEKRFLGEGHHRVQENQMDKA [CHGB], the protein stability index reads like this: under setting [1], 5.25 ± 0.13; under setting [2], 5.16 ± 0.25.

With HTTRSSLRGPRERAPSERSGPAAS [DVL3], the protein stability index came to 5.15 ± 0.24 under setting [1] and 4.75 ± 0.31 under setting [2].

For the sequence AVQKTDEGHPFKAYLELEITLSQE [RTN1], the protein stability index under setting [1] was determined as 2.24 ± 0.24 and the protein stability index under setting [2] is 2.56 ± 0.17.

In turn, NMERIMKAQALRDNSTMGYMMAKK [HSP90AB1] registered a protein stability index under setting [1] of 3.38 ± 0.19.

For GAPLIRVHSSPVSSPSVSGPRRLV [SPACA3], the protein stability index was determined as 3.24 ± 0.31 under setting [1] and 3.6 ± 0.19 under setting [2].

For TSVNLGILTADLYSLFVGLFLFGY [SLC35F2], the protein stability index reads like this: under setting [1], 2.93 ± 0.26; under setting [2], 3.12 ± 0.2.

SNPGVDFGDVSERLALRQRLKCRS [GALNT9]: the protein stability index is, setting by setting: under setting [1], 4.43 ± 0.1; under setting [2], 4.56 ± 0.17.

Consider DPELKNLFDMCGISEAQLKDRETS [WASL], for which the protein stability index was found to be 4.72 ± 0.063 under setting [1] and 4.68 ± 0.21 under setting [2].

DGIDRWIKEIDEHAPGVPKILVGN [RAB40B]: the protein stability index runs as follows: under setting [1], 3.68 ± 0.28; under setting [2], 3.85 ± 0.33.
